Assay results from PMC3996851, “Characterization of 3-phosphoglycerate kinase from Corynebacterium glutamicum and its impact on amino acid production” (BMC Microbiology, 2014).
Blank lines part the entries; values can stand above or below the molecule they belong to.

Experiments:
[1] = target: T1, PGK^His (C. glutamicum 3-phosphoglycerate kinase) (Corynebacterium glutamicum, UniProt Q01655); experiment: coupled GAPDH/NADH assay, absorbance […] nm; type: biochemical
T1 construct: full length, N-terminal tenfold His tag (pET16b); expressed in E. coli BL21(DE3), Ni-NTA purified; 47 kDa monomer, 104 kDa homodimer

purified protein [2] = substrate: Nc1ncnc2c1ncn2[C@@H]1O[C@H](COP(=O)(O)OP(=O)(O)OP(=O)(O)O)[C@@H](O)[C@H]1O; experiment: purified protein; type: biochemical, Corynebacterium glutamicum; conditions: gluconeogenic direction, co-substrate 3-PG, 2 mM Mg2+, 100 mM TEA-Cl pH 7.4, 30°C
purified protein [3] = substrate: O=C(O)[C@H](O)COP(=O)(O)O; experiment: purified protein; type: biochemical, Corynebacterium glutamicum; conditions: gluconeogenic direction, co-substrate ATP, 2 mM Mg2+, 100 mM TEA-Cl pH 7.4, 30°C
[4] = target: the molecule itself; experiment: SEC; gel filtration on a Bio-Prep SE-1000/17 column calibrated with BioRad standards; 100 mM TEA-Cl pH 7.4 with the optimal conditions for activity; two runs, 2 mg/ml PGK mixed with standards and 4 mg/ml PGK; single peak of about 104 kDa, fractions checked by enzyme activity (data not shown)

Ki [1]: 100 µM
Molecule: Nc1ncnc2c1ncn2[C@@H]1O[C@H](COP(=O)(O)OP(=O)(O)O)[C@@H](O)[C@H]1O [ADP]

B1: 3-phosphoglycerate kinase (PGK) from Corynebacterium glutamicum, N-terminally His-tagged (enzyme, Corynebacterium glutamicum ATCC 13032, UniProt Q01655 1-405, looked up)
chain: MAVKTLKDLLDEGVDGRHVIVRSDFNVPLNDDREITDKGRIIASLPTLKALSEGGAKVIVMAHLGRPKGEVNEKYSLAPVAEALSDELGQYVALAADVVGEDAHERANGLTEGDILLLENVRFDPRETSKDEAERTAFAQELAALAADNGAFVSDGFGVVHRAQTSVYDIAKLLPHYAGGLVETEISVLEKIAESPEAPYVVVLGGSKVSDKIGVIEALAAKADKIIVGGGMCYTFLAAQGHNVQQSLLQEEMKATCTDLLARFGDKIVLPVDLVAASEFNKDAEKQIVDLDSIPEGWMSLDIGPESVKNFGEVLSTAKTIFWNGPMGVFEFAAFSEGTRGIAQAIIDATAGNDAFSVVGGGDSAASVRVLGLNEDGFSHISTGGGASLEYLEGKELPGVAILAQ
notes: 3-phosphoglycerate kinase (EC 2.7.2.3) of Corynebacterium glutamicum ATCC 13032, encoded by cg1790/pgk; amplified from genomic DNA with primers from start to stop; monomer 47 kDa by SDS-PAGE; The methods say an N-terminal tenfold His tag (pET16b); also called PGK^His; PGKHis; source: E. coli BL21 (DE3) (pET16b-pgk), purified (Ni-NTA, desalted on Sephadex G25); not shown: His10, N-terminal, kept
Km (purified protein [2]): 110 µM
Vmax (purified protein [2]): 150 U/mg
kcat (purified protein [2]): 130 s⁻¹
kcat/Km (purified protein [2]): 592000 M⁻¹ s⁻¹
Km (purified protein [3]): 260 µM
Vmax (purified protein [3]): 220 U/mg
kcat (purified protein [3]): 191 s⁻¹
kcat/Km (purified protein [3]): 733000 M⁻¹ s⁻¹
stoichiometry N [4]: 2
